Target: T1, GST alone (UniProt P08515 1-218 = GST)
T1 construct: Negative control of the pull-downs; also called control GST
Experiment: GST pull-down, LC-MS/MS
Description: Extracts were spun at 14,000 r.p.m. at 4° C., and clarified supernatants were incubated with glutathione 4B Sepharose beads (GE Healthcare) at 4° C. overnight. The glutathione beads were then washed extensively with ice-cold TNE buffer, and bound proteins were subjected to SDS-PAGE followed by immunoblotting analysis. For the samples subjected to mass spectrometry, glutathione bead-bound proteins from equal amounts (600 μg) of mitochondria were further washed with high stringency RIPA buffer following TNE buffer wash to decrease nonspecific interaction. Proteins were then eluted from the glutathione beads in SDS sample buffer, separated by SDS-PAGE and stained with Coomassie. Proteins in the gel were digested with trypsin and analyzed by mass spectrometry (LC-MS/MS) at the Taplin Biological Mass Spectrometry Facility (Harvard Medical School, Boston, Mass.).

T1 sequence (P08515 whole entry): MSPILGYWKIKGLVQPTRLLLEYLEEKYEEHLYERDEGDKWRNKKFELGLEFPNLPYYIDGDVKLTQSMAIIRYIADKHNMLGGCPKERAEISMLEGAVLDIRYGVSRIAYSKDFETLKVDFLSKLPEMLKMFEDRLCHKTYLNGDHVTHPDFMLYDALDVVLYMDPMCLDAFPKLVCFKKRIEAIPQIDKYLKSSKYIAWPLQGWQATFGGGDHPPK

binding result	Binder
no binding	Prdx3_IPI:IPI00116192.1 (other, mouse, UniProt P20108 63-257, looked up) TPAVTQHAPYFKGTAVVNGEFKELSLDDFKGKYLVLFFYPLDFTFVCPTEIVAFSDKANEFHDVNCEVVAVSVDSHFSHLAWINTPRKNGGLGHMNITLLSDITKQISRDYGVLLESAGIALRGLFIIDPNGVVKHLSVNDLPVGRSVEETLRLVKAFQFVETHGEVCPANWTPESPTIKPSPTASKEYFEKVHQ
no binding	Mrpl14_IPI:IPI00133778.1 (other, mouse, UniProt Q9D1I6 31-145, looked up) AVQKMTRVRVVDNSALGSTPYHRPPRCIHVYNKSGVGKVGDQILLAIRGQKKKALIVGHRMPGSRMTPKFDSNNVVLIEDNGNPVGTRIKIPIPTSLRRREGEYSKVLAIAQNFV
no binding	Fis1_IPI:IPI00132217.1 (other, mouse, UniProt Q9CQ92 1-152, looked up) MEAVLNELVSVEDLKNFERKFQSEQAAGSVSKSTQFEYAWCLVRSKYNEDIRRGIVLLEELLPKGSKEEQRDYVFYLAVGNYRLKEYEKALKYVRGLLQTEPQNNQAKELERLIDKAMKKDGLVGMAIVGGMALGVAGLAGLIGLAVSKSKS
no binding	Cisd1_IPI:IPI00128346.1 (other, mouse, UniProt Q91WS0 1-108, looked up) MGLSSNSAVRVEWIAAVTFAAGTAALGYLAYKKFYAKENRTKAMVNLQIQKDNPKVVHAFDMEDLGDKAVYCRCWRSKKFPFCDGAHIKHNEETGDNVGPLIIKKKET
no binding	Pfn2_IPI:IPI00227805.6 (other, mouse, UniProt Q9JJV2 2-140, looked up) AGWQSYVDNLMCDGCCQEAAIVGYCDAKYVWAATAGGVFQSITPVEIDMIVGKDREGFFTNGLTLGAKKCSVIRDSLYVDGDCTMDIRTKSQGGEPTYNVAVGRAGRVLVFVMGKEGVHGGGLNKKAYSMAKYLRDSGF
no binding	Ociad2_IPI:IPI00112139.1 (other, mouse, UniProt Q9D8W7 1-154, looked up) MASVSTHGNQEKSPHLPPLSKQSLLFCPKSKLHIHRGEIAKIIRECQEESFWKRALPFSLISMLVTQGLVHQGYLAANPRFGSLPKVALAGLLGFGLGKASYIRVCQSKFHSFEDQLRGAGFGPEHNRHCLLTCEDCKTRRGLSEKAGSQPSAS
no binding	Tomm20_IPI:IPI00120715.1 (other, mouse, UniProt Q9DCC8 1-145, looked up) MVGRNSAIAAGVCGALFIGYCIYFDRKRRSDPNFKNRLRERRKKQKLAKERAGLSKLPDLKDAEAVQKFFLEEIQLGEELLAQGDYEKGVDHLTNAIAVCGQPQQLLQVLQQTLPPPVFQMLLTKLPTISQRIVSAQSLAEDDVE
no binding	C1qbp_IPI:IPI00132799.4 (other, mouse, UniProt O35658 71-278, looked up) LHTEGDKAFVEFLTDEIKEEKKIQKHKSLPKMSGDWELEVNGTEAKLLRKVAGEKITVTFNINNSIPPTFDGEEEPSQGQKAEEQEPERTSTPNFVVEVTKTDGKKTLVLDCHYPEDEIGHEDEAESDIFSIKEVSFQATGDSEWRDTNYTLNTDSLDWALYDHLMDFLADRGVDNTFADELVELSTALEHQEYITFLEDLKSFVKNQ
no binding	Brp44_IPI:IPI00131896.1 (other, mouse, UniProt Q9D023 1-127, looked up) MAAAGARGLRATYHRLMDKVELLLPKKLRPLYNHPAGPRTVFFWAPIMKWGLVCAGLADMARPAEKLSTAQSTVLMATGFIWSRYSLVIIPKNWSLFAVNFFVGSAGASQLFRIWRYNQELKSKGIQ
no binding	Arf2_IPI:IPI00135730.1 (other, mouse, UniProt Q8BSL7 2-181, looked up) GNVFEKLFKSLFGKKEMRILMVGLDAAGKTTILYKLKLGEIVTTIPTIGFNVETVEYKNISFTVWDVGGQDKIRPLWRHYFQNTQGLIFVVDSNDRERVNEAREELTRMLAEDELRDAVLLVFVNKQDLPNAMNAAEITDKLGLHSLRQRNWYIQATCATSGDGLYEGLDWLSNQLKNQK
no binding	Cplx1_IPI:IPI00132278.1 (other, mouse, UniProt P63040 1-134, looked up) MEFVMKQALGGATKDMGKMLGGDEEKDPDAAKKEEERQEALRQAEEERKAKYAKMEAEREVMRQGIRDKYGIKKKEEREAEAQAAMEANSEGSLTRPKKAIPPGCGDEPEEEDESILDTVIKYLPGPLQDMFKK
no binding	Ppdpf_IPI:IPI00133078.1 (other, mouse, UniProt Q9CR37 1-115, looked up) MAAIPSSGSLVATHDYYRRRLGSSSSSSSGGSAEYPGDAVLQSPGLPKADPGHWWASFFFGKSTLPFMTTVLESPERSAESPQVSRSPMTCGLTPETMKQQPVIHSGQTNPRDLS
no binding	Isca2_IPI:IPI00120671.2 (other, mouse, UniProt Q9DCB8 9-154, looked up) LTAEAVRAVIPRRSGRLLAVFPRLLTRWETTSSIPEAGEGQIRLTDSCVQRLLEITEGSEFLRLQVEGGGCSGFQYKFSLDTVINPDDRVFEQGGARVVVDSDSLAFVKGAQVDFSQELIRSSFQVLNNPQAQQGCSCGSSFSVKV
